Reference: patent CN116836268A (BEIJING WISDOMAB BIOTECHNOLOGY CO LTD, dated 2023)

Biological target: Cov-S-RBD-His (SARS-CoV-2, UniProt P0DTC2 319-537)

B1: S4B3-mIgG2a (antibody, V domains shown)
VH: QVQLQQSGAELVKPGASVKMSCKASGYIFNSYSIHWVKKTPGQGLEWIGAIYPGNGDTSNSQRFKGKATLTADKSSSTVYMQLSRLTSEDSAVYYCARDGYDDSYGLDYWGQGTSVTVSS
VL: DIVMTQSQKFMSTSVGDRVSVTCKASQNVGTNVAWYQQKPGQSPKALIYSASYRYSGVPDRFTGSGSGTDFTLTISNVQSEDLAEYFCQQYNSYPLTFGGGTKLEIKR
- Kd: 22.8 nM
